Test results taken from patent US20250136718A1 (MABWELL THERAPEUTICS, published 2025).

T1: matriptase (ST14) over-expressed in HEK293T cells (human, UniProt Q9Y5Y6 1-855)
T1 construct: also called matriptase-1
T1 sequence: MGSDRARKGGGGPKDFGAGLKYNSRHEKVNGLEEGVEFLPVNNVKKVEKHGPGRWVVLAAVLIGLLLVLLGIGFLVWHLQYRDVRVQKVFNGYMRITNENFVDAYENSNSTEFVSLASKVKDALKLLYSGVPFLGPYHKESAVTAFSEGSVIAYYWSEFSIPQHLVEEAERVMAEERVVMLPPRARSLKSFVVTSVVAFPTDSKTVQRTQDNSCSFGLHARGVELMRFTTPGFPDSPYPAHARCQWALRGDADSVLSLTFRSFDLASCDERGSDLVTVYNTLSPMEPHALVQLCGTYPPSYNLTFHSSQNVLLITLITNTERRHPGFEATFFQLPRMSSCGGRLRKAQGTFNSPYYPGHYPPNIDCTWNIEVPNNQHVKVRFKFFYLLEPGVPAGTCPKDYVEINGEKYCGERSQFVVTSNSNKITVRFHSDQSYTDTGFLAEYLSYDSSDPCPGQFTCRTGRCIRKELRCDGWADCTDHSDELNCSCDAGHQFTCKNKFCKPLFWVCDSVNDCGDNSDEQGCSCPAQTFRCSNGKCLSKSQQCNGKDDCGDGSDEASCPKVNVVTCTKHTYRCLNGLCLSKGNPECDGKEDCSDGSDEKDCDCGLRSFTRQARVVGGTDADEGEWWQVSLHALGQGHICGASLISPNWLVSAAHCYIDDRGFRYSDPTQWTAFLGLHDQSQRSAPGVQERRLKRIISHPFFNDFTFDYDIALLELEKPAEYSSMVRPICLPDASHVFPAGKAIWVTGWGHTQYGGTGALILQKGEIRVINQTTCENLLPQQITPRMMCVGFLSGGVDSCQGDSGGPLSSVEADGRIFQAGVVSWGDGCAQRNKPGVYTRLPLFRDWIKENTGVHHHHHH

T2: matriptase-3 (TMPRSS7) over-expressed in HEK293T cells (human, UniProt Q7RTY8 1-843)
T2 sequence: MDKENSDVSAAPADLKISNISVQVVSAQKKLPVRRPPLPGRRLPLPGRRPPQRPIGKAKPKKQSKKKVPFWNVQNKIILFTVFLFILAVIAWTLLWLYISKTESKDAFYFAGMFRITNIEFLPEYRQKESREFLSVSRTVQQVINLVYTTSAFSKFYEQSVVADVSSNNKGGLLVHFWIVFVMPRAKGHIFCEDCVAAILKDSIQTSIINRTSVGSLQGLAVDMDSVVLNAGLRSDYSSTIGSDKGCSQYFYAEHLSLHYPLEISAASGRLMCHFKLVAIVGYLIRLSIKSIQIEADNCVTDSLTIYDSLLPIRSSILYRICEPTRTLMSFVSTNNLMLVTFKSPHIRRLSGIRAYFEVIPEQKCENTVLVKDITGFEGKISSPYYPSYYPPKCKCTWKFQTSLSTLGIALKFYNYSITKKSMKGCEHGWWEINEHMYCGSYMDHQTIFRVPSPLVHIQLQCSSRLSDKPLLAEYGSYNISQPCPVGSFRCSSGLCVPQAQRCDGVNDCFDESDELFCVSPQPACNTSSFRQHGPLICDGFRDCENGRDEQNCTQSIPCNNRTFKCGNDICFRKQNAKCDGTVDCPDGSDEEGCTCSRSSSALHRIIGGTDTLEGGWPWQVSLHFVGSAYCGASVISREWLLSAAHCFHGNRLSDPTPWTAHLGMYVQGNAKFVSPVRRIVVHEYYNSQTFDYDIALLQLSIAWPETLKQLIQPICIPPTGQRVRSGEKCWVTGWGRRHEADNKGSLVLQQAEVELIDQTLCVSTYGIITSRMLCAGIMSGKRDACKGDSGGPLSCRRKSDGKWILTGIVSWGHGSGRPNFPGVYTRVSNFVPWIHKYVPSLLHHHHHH

B1: MWTx-003 anti-TMPRSS6 monoclonal antibody (antibody, mouse IgG2b, kappa, V domains shown)
VH: EVQLQQSGAELVKPGASVKLSCTASGFNIEDYYIHWVKERTEQGLEWIGRIDPEDGETTYAPQFQGKATIIPDTSSNTAYMQLSSLTSEDAAVYYCARSIYLDPMDYWGQGTSVTVSS
VL: DIVMTQSHKFMSTSVGDRVSITCKASQDVTTAVAWYQQKPGQSPKILIYWATTRHTGVPDRFTGSISGTTYILTISSVQAEDLALYYCQQHYSTPYTFGGGTKLEIKR
notes: Mouse monoclonal antibody from hybridoma (ATCC PTA-126761); The recombinant version r4K12B has the same HC and LC; also called r4K12B; recombinant MWTx-003
B2: MWTx-001 anti-TMPRSS6 monoclonal antibody (antibody, mouse IgG2a, kappa, V domains shown)
VH: QVQLQQPGAELAKPGASVKMSCKASGYTFTSYWITWVKQRPGQDLEWIGNIYPGSGSTYYNEKFKSKATLTVDTSSRTAYMQLSSLTSADSAVYYCAPYDSDYAMDYWGQGTSVTVSS
VL: DIKMTQSPSSMYASLGERVTITCKASQDINNYLSWFQQKPGKSPKTLIYRANRLVDGVPSRVSGSGSGQDYSLTISSLEYEDVGIYFCLQYDEFPLTFGAGTKLELKR
notes: Mouse monoclonal antibody from hybridoma (ATCC PTA-126759)
B3: humanized anti-TMPRSS6 antibody variant hzMWTx-003 Var (antibody, human IgG1, kappa, L234A L235A, V domains shown)
VH: QVQLVQSGAEVKKPGASVKVSCKASGFNIEDYYMHWVRQAPGQRLEWMGRIDPEDAETTYSPKFQGRVTIIPDTSANTAYMELSSLRSEDTAVYYCARSIYLDPMDYWGQGTLVTVSS
VL: DIQMTQSPKSLSASVGDRVTITCRASQDVTTALAWYQQKPGQSPKLLIYWATTRHSGVPSRFSGSGSGTDFTLTISSLQPEDFATYYCQQHYSTPYTFGQGTKLEIKR
notes: Human IgG1 / kappa
B4: humanized anti-TMPRSS6 antibody variant hzMWTx-002 Var (antibody, human IgG1, kappa, N297A, V domains shown)
VH: EVQLVQSGAEVKKPGASVKVSCKASGFNIKDYYIHWVRQATGQGLEWMGRIDPEDAESEYAPKFQGRVTITADTSTDTAYMELSSLRSEDTAVYYCTRGDSMMVTYFDYWGQGTLVTVSS
VL: DIQMTQSPSSLSASVGDRVTITCKASQDVSTAVAWYQQKPGKAPKLLIYWAFTRHTGVPSRFSGSGSGTDYALTISSLQPEDFATYYCQQHYRSPWTFGGGTKVEIKR
notes: Human IgG1 / kappa
B5: humanized anti-TMPRSS6 antibody variant hzMWTx-001 Var (antibody, human IgG1, kappa, N297A, V domains shown)
VH: EVQLVQSGAEVKKPGASVKVSCKASGYTFTSYWITWVRQAPGQRLEWIGNIYPGSGSTYYNEKFKSKATITRDTSSRTAYMELSSLRSEDTAVYYCAPYDADYAMDYWGQGTLVTVSS
VL: DIQMTQSPSSLSASVGDRVTITCKASQDISNYLSWFQQKPGKAPKLLIYRANRLVEGVPSRFSGSGSGTDFTLTISSLQPEDFATYFCLQYDEFPLTFGGGTKVEIKR
notes: Human IgG1 / kappa
B6: MWTx-002 anti-TMPRSS6 monoclonal antibody (antibody, mouse IgG2b, kappa, V domains shown)
VH: EVQLQQSGAELVKPGASVKLSCTASGFNIKDYYIHWVKERTEQGLEWFGRIDPEDGESEYAPKFQGKATLTADTSSNTAYLQLSSLTSEDTAVYYCTRGDSMMVTYFDYWGQGTTLTVSS
VL: DIVMTQSHKFMSTSVGDRVSITCKASQDVSTAVAWYQQKPGQSPKLLIYWAFTRHTGVPDRFTSTGSGTDYALTISSVQAEDLALYYCQQHYRSPWTFGGGTKLEIKR
notes: Mouse monoclonal antibody from hybridoma (ATCC PTA-126760)

Molecular target: T1, matriptase (ST14) over-expressed in …
Experiment: FACS on permeabilized HEK293T cells over-expressing matriptase (ST14)
Source text: (§1) To determine if anti-TMPRSS6 antibodies bind to homologous matriptases, HEK293T cells over-expressing matriptase (ST14) (SEQ ID NO: 100) (FIGS. 5B, 5E, 5H, 5K, 5N, 5Q), and HEK293T cells over-expressing matriptase-3 (TMPRSS7) (SEQ ID NO: 101) (FIGS. 5C, 5F, 5I, 5L, 5O, 5R) were collected (generated in house). HEK293T cells stably expressing human TMPRSS6 (matriptase-2) (SEQ ID NO: 97) (generated by LakePharma Inc as described above, FIGS. 5A, 5D, 5G, 5J, 5M, 5P) were used as a positive control and HEK293T cells (FIGS. 5A-5R) were used as a negative control (as described above). Cells were blocked and permeabilized with dPBS+3% BSA+0.1% Tween-20 before incubation with various anti-TMPRSS6 antibodies diluted in dPBS+3% BSA+0.1% Tween-20. Cells were incubated with anti-TMPRSS6 antibodies and their humanized variants at a concentration of roughly 1 μg/ml for 1 hr. After incubation, cells were washed with dPBS and incubated with goat anti-mouse IgG conjugated with AlexaFluor-488 (Invitrogen, FIGS. 5A-5I) or goat anti-human IgG conjugated with Allophycocyanin (APC) (Jackson Immuno Research, FIGS. 5J-5R) as a 2° antibody. At last, cells were washed with dPBS and re-suspended with dPBS+1 mM EDTA, and then subjected to FACS analysis using a NOVOCYTE® Flow Cytometer. Bound antibody was determined by excitation at 488 nm and measurement of emission (FITC-A) at 530 nm (FIGS. 5A-5I) or by excitation at 640 nm and measurement of emission (APC-A) at 675 nm (FIGS. 5J-5R). Results for these assays are shown in histogram plots in FIGS. 5A-5R.

binding result	Binder
no binding (tested: roughly 1 µg/ml)	B1
no binding (tested: roughly 1 µg/ml)	B2
no binding (tested: roughly 1 µg/ml)	B3
no binding (tested: roughly 1 µg/ml)	B4
no binding (tested: roughly 1 µg/ml)	B5
no binding (tested: roughly 1 µg/ml)	B6

Molecular target: T2, matriptase-3 (TMPRSS7) over-expressed …
Experiment: FACS on permeabilized HEK293T cells over-expressing matriptase-3 (TMPRSS7)
Source text: as §1

binding result	Binder
no binding (tested: roughly 1 µg/ml)	B1
no binding (tested: roughly 1 µg/ml)	B2
no binding (tested: roughly 1 µg/ml)	B3
no binding (tested: roughly 1 µg/ml)	B4
no binding (tested: roughly 1 µg/ml)	B5
no binding (tested: roughly 1 µg/ml)	B6
